Here are results for three molecules from patent US9050374B2, “Inhibitors against endosomal/lysosomal enzymes” (UNIVERSITY COURT OF THE UNIVERSITY OF DUNDEE, priority 2011, dated 2015).

Entries after “also recorded” stand apart in the source; their conditions may differ. Where a SMILES comes first, the peptide text is derived from it. [ ]: non-standard residue; d: D form. The star is where a group is joined. Sta = CC(C)C[C@H](N)[C@@H](O)CC(=O)O; Isovaleryl = CC(C)CC(=O)*

Series [1] concerns endo-lysosomal proteases of purified lysosomes from mouse macrophages. In words: In vitro digest of apo-HRP with purified macrophage lysosomes. As to conditions: SDS-PAGE. The format is biochemical. On the procedure: Lysosomes isolated from bone-marrow derived macrophages using a Percoll density-gradient fractionation (400 ng/μL, 3.6 μL) were resuspended in assay buffer (50 mM Citrate, pH 4.5, 0.5% Triton X-100; 59 μL) Inhibitor (70 μM; 12 μL in PBS+5% DMSO) was added and the mixture incubated for 15 minutes. Protein substrate (1 mg/mL in PBS, 9 μL) was added to the mixture and the reaction was incubated at 37° C. At the indicated timepoints 20 μL of the reaction mixture was removed and boiled with LDS-sample buffer and analysed by SDS-PAGE.

Series [2] can be described thus: Solubility in aqueous media. The settings on record: applicant's own observation. It is filed as physicochemical.
The target in series [3] is Cathepsin D and E. The settings on record: read-out: Ki for inhibition of Cathepsin D and E; cited from earlier work.
For series [4] the following is noted: cited from earlier work.
In series [5] the test system is COS-7 cells, EGFr. In words: Effect on EGF receptor downregulation and EGF signalling (Western blot). It is filed as cell-based. On the procedure: COS7 cells growing in 12-well tissue culture plates were preincubated for 1 hour with or without cystatin C (0.35 mg/ml) or CPI (0.32 mg/ml) and then stimulated with 100 ng/ml EGF for the times shown. The cells were scraped from the well in 50 μl lysis buffer containing 50 mM Tris, 150 mM NaCl, 1 mM EGTA, 1 mM EDTA, 1% NP40 plus protease inhibitors (Roche, Miniprotease tablet). […] The blot was then stripped and reprobed for phosphor-Erk (p42/44 MAP kinase; Cell signalling) and as as loading control, Rsk2 (Santa Cruz) with appropriate secondary antibodies. The signals were quantitated using ImageJ analysis software.

In series [6] the target is T1, AEP (Homo sapiens, UniProt Q99538).
T1 sequence (Q99538 18-323): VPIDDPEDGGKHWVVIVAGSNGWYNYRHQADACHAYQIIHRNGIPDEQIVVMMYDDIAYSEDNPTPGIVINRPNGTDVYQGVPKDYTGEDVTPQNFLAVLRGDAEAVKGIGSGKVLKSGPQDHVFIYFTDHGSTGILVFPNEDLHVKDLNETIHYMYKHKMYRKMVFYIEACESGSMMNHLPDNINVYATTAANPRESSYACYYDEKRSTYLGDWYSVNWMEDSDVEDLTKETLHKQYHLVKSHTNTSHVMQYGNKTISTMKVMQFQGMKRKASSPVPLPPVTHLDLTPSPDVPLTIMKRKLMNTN
As to conditions: via a distinct binding site; read-out: Ki for inhibition of AEP; cited from earlier work.

In series [7] the target is T2, mouse Cathepsin L (Mus musculus, UniProt P06797).
T2 construct: purchased R&D systems
In words: Inhibition studies of recombinant Cathepsin L. The format is biochemical. The settings on record: compared among mutants R77C, L117C, T102C; 5 ng Cathepsin L/well.
Description: All protease inhibition studies were carried out as described previously^7-9 on a FLUOstar Optima Fluorimeter (BMG) with 360 nm excitation and 460 nm emission wavelength filters as described previously.^1-2,9-10 Recombinant Cathepsin D and Cathepsin S were purchased from R&D Systems.
The mixture was gently shaken at room temperature for 5 minutes prior to the addition of Z-Leu-Arg-AMC (40 μM in assay buffer, made from a 1 mM DMSO Stock solution). 7-amino-4-methylcoumarin release was measured by fluorescence spectroscopy over time. Initial rates were plotted against inhibitor concentration^11.

T2 sequence (P06797 114-333 limits assumed): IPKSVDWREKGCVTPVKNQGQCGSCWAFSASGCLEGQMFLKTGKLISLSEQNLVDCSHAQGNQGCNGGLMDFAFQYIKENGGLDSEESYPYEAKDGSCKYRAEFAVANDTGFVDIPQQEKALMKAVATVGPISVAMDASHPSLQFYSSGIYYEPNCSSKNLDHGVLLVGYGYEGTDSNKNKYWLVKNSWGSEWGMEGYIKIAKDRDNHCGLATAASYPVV

In the case of `CC(C)CC(=O)N[C@H](C(=O)N[C@H](C(=O)N[C@@H](CC(C)C)[C@@H](O)CC(=O)N[C@@H](C)C(=O)N[C@@H](CC(C)C)[C@@H](O)CC(=O)O)C(C)C)C(C)C` [pepstatin A] (Isovaleryl-VV[Sta]A[Sta]-OH), the “stabilization of apo-HRP against lysosomal degradation” value in series [1] (FIG. 9, listed as pepstatin) is given as “little or no stabilization”. Besides, in series [2], the “water solubility, in words” value is “insolubility; also recorded: very insoluble”. Also, the inhibition constant Ki (in general, a measure of affinity in units of concentration, obtained from inhibition or displacement) in series [3] was 100 pM. The “solubility in aqueous media, in words” value in series [4] is recorded as “virtual insolubility in aqueous media”.

B1: cystatin C: naturally occurring 14 kDa protein that inhibits PLCPs and AEP (protein, listed as Homo sapiens)
chain: MAGPLRAPLLLLAILAVALAVSPAAGSSPGKPPRLVGGPMDASVEEEGVRRALDFAVGEYNKASNDMYHSRALQVVRARKQIVAGVNYFLDVELGRTTCTKTQPNLDNCPFHDQPHLKRKAFCSFQIYAVPWQGTMTLSKSTCQDA
modifications: Cystatin C
On to B1, for which the “stabilization of apo-HRP against lysosomal degradation” value is listed as “appears to protect a fragment only” in series [1] (FIG. 9, listed as Cystatin C) and “little or no stabilization” in series [1] (FIG. 9, listed as cystatin). The “EGFr level / downregulation after EGF challenge” value in series [5] (1 hour preincubation, 100 ng/ml EGF up to 90 min, Western blot) is “suppressed EGFr downregulation but not to the same extent as CPI”. The “activation of MAP kinases Erk1/2 (check for inhibitor toxicity)” value in series [5] (COS-7 cells stimulated with EGF) was “normally”. Moreover, the Ki in series [6] is 200 pM.

B2: T102C: cystatin C mutant with threonine 102 replaced by cysteine, C-terminal 6His-tag (protein)
chain: SSPGKPPRLVGGPMDASVEEEGVRRALDFAVGEYNKASNDMYHSRALQVVRARKQIVAGVNYFLDVELGRTTCTKCQPNLDNCPFHDQPHLKRKAFCSFQIYAVPWQGTMTLSKSTCQDAHHHHHH
With B2, in series [7], the “inhibitory properties of cystatin C mutants” value was “most favourable inhibitory properties”.
